US20240352121A1 (published 2024)
Positions count from the first letter of the chain named.

T1: LAIR-1 (human; form used for the KD not stated) (UniProt Q6GTX8 22-165)
T1 chain: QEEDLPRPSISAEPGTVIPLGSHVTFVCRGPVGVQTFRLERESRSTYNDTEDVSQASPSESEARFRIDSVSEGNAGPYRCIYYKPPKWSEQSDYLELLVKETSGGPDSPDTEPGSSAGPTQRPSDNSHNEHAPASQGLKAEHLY

B1: hLAIR-1 mAb-Parent (antibody, V domains shown)
VH: EVQLVESGGGLVQPKGSLKLSCAASGFTFNTNAMYWVRQAPGKGLEWVARIRSKSSNYATYYADSVKDRFTISRDDSQSMLYLQMNNLKTEDTARYYCVRGGSGFFAYWGQGTLVTVSA
VL: DIQMAQSSSSFSVSLGDRVTITCKASEDIYIRLAWYQQKPGNAPRLLISTATSLETGVPSRFSGSGSGKDYTLSITSLQTEDVATYYCQQYWSTPYTFGGGTRLEIK
B2: 11B3 hG1 (antibody, V domains shown)
VH: B1 VH
VL: DIQMAQSSSSFSVSLGDRVTITCKASEDIYIRLAWYQQKPGNAPRLLISTATSLETGVPSRFSGSGSGKDYTLSITSLQTEDVATYYCQQYWSTPYTFGGGTRLEIKR
B3: h11B3 LAIR-1 mAb, Anti-LAIR-1 Variant 6 (h11B3 VL-2 / h11B3 VH-3) (antibody, V domains shown)
VH: B1 VH with K15G, A49G, D64A, D68G, Q78K, S79N, M80T, N87S, R95V, A119S
VL: DIQMTQSPSSLSASLGDRVTITCKASEDIYIRLAWYQQKPGKAPRLLISTATSLETGVPSRFSGSGSGTDYTFTISSLQPEDIATYYCQQYWSTPYTFGGGTRLEIK

Legend:
[1] = molecular target: human LAIR-1 fused to the zeta chain of CD3, on UT-140 reporter cells (UniProt P20963 31-164); test: cell binding (flow cytometry)
[2] = molecular target: T1, LAIR-1 (human; form used for the KD not …); test: kinetic binding; replicate 3
[3] = molecular target: T1, LAIR-1 (human; form used for the KD not …); test: kinetic binding; replicate 1
[4] = molecular target: T1, LAIR-1 (human; form used for the KD not …); test: kinetic binding; replicate 2

Binder | EC50 [1] [nM] | Kd [2] [nM] | Kd [3] [nM] | Kd [4] [nM]
B1 | 0.15 | – | – | –
B2 | – | 1.95 | 1.25 | 1.16
B3 | – | 2.34 | 2.38 | –
